Test results from US20240076389A1 (NATIONAL RESEARCH COUNCIL OF CANADA, published 2024).

Assays:
[1] = target: T1, AXL fragment # 6 (AXL amino acids 26-226, IgL1+IgL2); experiment: yeast surface display of hAXL fragments (Aga2-HA-(hAXL)-MYC), whole yeast cell ELISA, signal normalised to anti-MYC
T1 chain: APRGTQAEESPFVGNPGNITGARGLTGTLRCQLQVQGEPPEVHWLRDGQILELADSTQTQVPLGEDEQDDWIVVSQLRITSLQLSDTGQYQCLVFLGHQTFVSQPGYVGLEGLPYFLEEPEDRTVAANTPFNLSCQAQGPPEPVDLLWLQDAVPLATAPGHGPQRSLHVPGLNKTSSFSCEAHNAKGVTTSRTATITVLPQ
Excerpt: (§1) Epitope mapping. […] The YSD vector (pPNL6) was from The Pacific Northwest National Laboratory, USA.

[2] = target: T2, AXL fragment # 9 (AXL amino acids 26-429, IgL1+IgL2+FN III-1+FN III-2); experiment: as above
T2 construct: not shown: Yeast display carrier and tags (Aga2p, HA, MYC and any linkers)
Excerpt: as §1

[3] = target: T3, AXL fragment # 4 (AXL amino acids 219-335, FN III-1); experiment: yeast surface display of hAXL fragments, whole yeast cell ELISA, signal normalised to anti-MYC
T3 chain: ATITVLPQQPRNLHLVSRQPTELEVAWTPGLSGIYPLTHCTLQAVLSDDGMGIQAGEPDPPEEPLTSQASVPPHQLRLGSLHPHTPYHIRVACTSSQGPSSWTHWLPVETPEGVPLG
Excerpt: as §1

[4] = target: T4, AXL fragment # 8 (AXL amino acids 219-450, FN III-1+FN III-2+); experiment: as above
T4 construct: not shown: Yeast display carrier and tags (Aga2p, HA, MYC and any linkers)
T4 chain: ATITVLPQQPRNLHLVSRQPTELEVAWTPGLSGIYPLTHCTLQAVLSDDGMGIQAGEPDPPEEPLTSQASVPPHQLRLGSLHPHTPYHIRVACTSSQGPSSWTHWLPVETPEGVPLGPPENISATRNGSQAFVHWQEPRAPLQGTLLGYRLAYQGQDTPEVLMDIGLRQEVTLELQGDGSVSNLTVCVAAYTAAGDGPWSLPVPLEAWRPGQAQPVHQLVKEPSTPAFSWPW
Excerpt: as §1

[5] = target: T5, AXL fragment # 2 (AXL amino acids 321-429, FN III-2); experiment: as above
T5 chain: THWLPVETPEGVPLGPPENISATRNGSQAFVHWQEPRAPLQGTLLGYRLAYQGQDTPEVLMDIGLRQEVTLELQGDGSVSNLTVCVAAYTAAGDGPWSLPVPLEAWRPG
Excerpt: as §1

[6] = target: T6, AXL fragment # 5 (AXL amino acids 321-450, FN III-2+); experiment: as above
T6 chain: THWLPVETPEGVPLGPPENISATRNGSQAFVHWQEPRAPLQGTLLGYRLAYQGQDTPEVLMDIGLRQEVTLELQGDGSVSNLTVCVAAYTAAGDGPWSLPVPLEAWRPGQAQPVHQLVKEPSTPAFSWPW
Excerpt: as §1

[7] = target: T7, AXL fragment # 3 (AXL amino acids 26-138, IgL1); experiment: yeast surface display of hAXL fragments (Aga2-HA-(hAXL)-MYC), whole yeast cell ELISA, signal normalised to anti-MYC
T7 chain: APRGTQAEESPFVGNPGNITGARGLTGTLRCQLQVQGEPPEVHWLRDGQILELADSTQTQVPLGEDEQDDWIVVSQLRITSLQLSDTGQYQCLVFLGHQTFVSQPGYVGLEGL
Excerpt: as §1

[8] = target: T8, AXL fragment # 1 (AXL amino acids 135-226, IgL2); experiment: yeast surface display of hAXL fragments, whole yeast cell ELISA, signal normalised to anti-MYC
T8 chain: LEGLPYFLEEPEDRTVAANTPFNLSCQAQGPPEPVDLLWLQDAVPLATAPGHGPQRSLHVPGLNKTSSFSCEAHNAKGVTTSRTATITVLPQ
Excerpt: as §1

[9] = target: T9, AXL fragment # 7 (AXL amino acids 135-335, IgL2+FN III-1); experiment: as above
T9 chain: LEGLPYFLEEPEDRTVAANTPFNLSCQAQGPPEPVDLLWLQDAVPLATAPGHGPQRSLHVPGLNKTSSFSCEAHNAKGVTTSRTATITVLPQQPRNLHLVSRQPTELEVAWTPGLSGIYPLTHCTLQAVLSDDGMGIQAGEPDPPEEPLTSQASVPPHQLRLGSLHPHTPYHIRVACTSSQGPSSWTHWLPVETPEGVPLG
Excerpt: as §1

Binder	binding result [1]	binding result [2]	binding result [3]	binding result [4]	binding result [5]	binding result [6]	binding result [7]	binding result [8]	binding result [9]
F111-3C8 (antibody, V domains shown, also called F111-3C8-2) VH: QVQLQQPGAELGKPGTSVKLSCKASGYTFTSYWMHWVKRVPGQGLEWIGNINPNSTSADYNEKFKRKATLTVDKSSSTAYMQLSTLTSEDSAVYYCTRPLMGPYWYFDVWGTGTTVTVSS VL: QIVLTQSPAIMSASPGEKVTISCSASSSVSYMYWYQQKPGSSPKPWIYRTSNLASGVPARFSGSGSGTSYSLTISSMEAEDAATYYCQQYHNYPPTFGGGTKLEIK	binds	binds	no binding	no binding	no binding	no binding	–	–	–
F107-10G1 (antibody, V domains shown, also called F107-10G1-3) VH: EVNLVESGGGVVKPGASLKLSCEASGFTFSNYGMSWVRQTSDKRLEWVASISGGGGRTYYLDNVKGRFIISRENAKNTLYLQMSSLKSEDTALFYCARGARASYFAMDYWGQGSSVTVSS VL: VIVMTQSHKFMSTSVGDRVSITCKASQDVTTAVAWYQQKPGQSPKLLIYWASTRHTGVPDRFTGSGSGTDYSLTISNVQTEDLAFYYCQQHFTTPLTFGAGTKLELK	binds	binds	no binding	no binding	no binding	no binding	binds	no binding	no binding
F107-8D12 (antibody, V domains shown, also called F107-8D12-2; mAb 8D12) VH: QVQLQQPGAELVKPGASVQLSCKASGYTFISFWINWVKQRPGQGLEWMGNIFPGSSSTNYNEKFKSKATLTVDKSSSTAYMQLSSLTSEDSAVYFCARDYYGGSPDYWGQGTTLTVSS VL: DIVMSQSPSSLAVSAGERVTMSCKSSQSLLNTRTRKNYLAWYQQKPGQSPKLLIYWASTRESGVPDRFTGSGSGTDFTLTISSVQAEDLAVYYCKQSYNLWTFGGGTKLEIK	binds	binds	no binding	no binding	no binding	no binding	binds	no binding	no binding
F107-7H5 (antibody, V domains shown, also called F107-7H5-2; mAb 7H5) VH: QVQLQQPGAELVKPGASVKLSCKASGYTFTSYWINWVKQRPGQGLEWIGNIYPDSSSTNYNEKFKSKATLTVDKSSTTAYIQFSSLTSEDSAVYYCTRDTYGGSPDYWGQGTTLTVSS VL: DIVMSQSPSSLAVSAGEKVTMSCKSSQSLLNSRTRKIYLAWYQQKPGQSPKLLIYWASTRQSGVPDRFTGSGSGTDFTLTISSVQAEDLAVYYCKQSYNLWTFGGGTKLEIK	binds	binds	no binding	no binding	no binding	no binding	binds	no binding	no binding
F111-5E9 (antibody, V domains shown, also called F111-5E9-2; mAb 5E9) VH: QIQLVQSGPELKKPGETVKISCKASGYTFTKYGMNWVKQAPGKGLKWMGWINTYTGEPTYADDFKGRFAFSLETSASTAYLQINNLTTEDMVTYFCAKGGYYSNPIYPMDYWGQGTSVTVSS VL: DIQMTQTTSSLSASLGDRVTISCRASQDINNYLNWYQQKPDGTVKLLIYYISRLHSGVPSRFSGSGSGTDYSLTISNLELEDVATYFCQQGNTLPFTFGSGTKLEIK	binds	binds	no binding	no binding	no binding	no binding	–	–	–
